Key:
[1] = biological target: PD-L1 (human) (UniProt Q9NZQ7); experiment: cell-based or functional assay
[2] = biological target: CD28 (human) (UniProt P10747); experiment: cell-based or functional assay

Chain of PD-L1 (human) (Q9NZQ7 19-290): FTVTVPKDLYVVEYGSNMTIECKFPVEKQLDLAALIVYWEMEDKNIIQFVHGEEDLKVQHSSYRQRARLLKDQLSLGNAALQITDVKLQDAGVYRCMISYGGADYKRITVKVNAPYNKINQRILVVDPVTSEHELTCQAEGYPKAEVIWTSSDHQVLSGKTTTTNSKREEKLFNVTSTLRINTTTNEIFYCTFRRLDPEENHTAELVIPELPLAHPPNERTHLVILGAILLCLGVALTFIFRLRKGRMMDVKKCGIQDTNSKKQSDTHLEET

| Substance | Jurkat/IL2 + CHO/OKT3/PD-L1 reporter assay, RLU at CD80 Conc 5.0 nM [1] | IL-2-luciferase RLU, Jurkat + K562/OKT3/PD-L1 aAPC, 50 nM [2] | also measured |
| --- | --- | --- | --- |
| CD80 IgV-Fc E35D/N48K/L72V (from UniProt P33681 35-141) (Fc fusion) | 1730 RLU |  |  |
| CD80 IgV-Fc (inert) H18T/A26N/E35D/M47L/V68M/A71G (from UniProt P33681 35-141) (Fc fusion) |  |  | RLU, Jurkat/IL2 + CHO/OKT3/PD-L1 Reporter Assay, CD80 Conc 5.0 nM [1]: 1050 RLU |
| CD80 IgV-Fc D46V/M47I/A71G (from UniProt P33681 35-141) (Fc fusion) | 1600 RLU |  |  |
| CD80 IgV-Fc E35D/M43I/M47L/L85M (from UniProt P33681 35-141) (Fc fusion) | 1430 RLU |  |  |
| CD80 IgV-Fc E35D/M47L/A71G/L85M (from UniProt P33681 35-141) (Fc fusion) | 1510 RLU |  |  |
| CD80 IgV-Fc (inert) H18R/A26P/E35D/D46N/M47V/V68M/A71G/D90P (from UniProt P33681 35-141) (Fc fusion) |  |  | RLU, Jurkat/IL2 + CHO/OKT3/PD-L1 Reporter Assay, CD80 Conc 5.0 nM [1]: 972 RLU |
| CD80 IgV-Fc E35D/M47V/T62S/L85Q (from UniProt P33681 35-141) (Fc fusion) | 1400 RLU |  |  |
| CD80 IgV-Fc (inert) H18Y/A26P/E35D/M47I/V68M/A71G (from UniProt P33681 35-141) (Fc fusion) |  |  | RLU, Jurkat/IL2 + CHO/OKT3/PD-L1 Reporter Assay, CD80 Conc 5.0 nM [1]: 761 RLU |
| CD80 IgV-Fc E35D/D46E/A91G (from UniProt P33681 35-141) (Fc fusion) | 395 RLU |  |  |
| variant CD80 IgV-Fc (inert) Q33L/E35D/D46E/M47I (Fc fusion) |  | 554 RLU |  |
| variant CD80 IgV-Fc (inert) Y31S/E35D/M47L/T79L/E88G (Fc fusion) |  | 496 RLU | Fold Increase over WT CD80-IgV-Fc, same assay, 50 nM [2]: 0.9 fold |
| CD80 IgV-Fc (inert) H18V/A26K/E35D/M47L/V68M/A71G (from UniProt P33681 35-141) (Fc fusion) |  |  | RLU, Jurkat/IL2 + CHO/OKT3/PD-L1 Reporter Assay, CD80 Conc 5.0 nM [1]: 957 RLU |
| CD80 IgV-Fc E35D/M43I/D46E/A71G/L85M (from UniProt P33681 35-141) (Fc fusion) | 1480 RLU |  |  |
| WT IgG1 Fc Control |  |  | IL-2 release, primary T cells; K562/OKT3 (No PD-L1); 1 nM [2]: 7080; IL-2 release, primary T cells; K562/OKT3 (No PD-L1); 10 nM [2]: 6920; IL-2 release, primary T cells; K562/OKT3 (No PD-L1); 100 nM [2]: 6260 |
| CD80 IgV-Fc (inert) H18V/A26D/E35D/M47V/V68M/A71G/D90G (from UniProt P33681 35-141) (Fc fusion) |  |  | RLU, Jurkat/IL2 + CHO/OKT3/PD-L1 Reporter Assay, CD80 Conc 5.0 nM [1]: 771 RLU |
| CD80 IgV-Fc M43I/M47L/A71G (from UniProt P33681 35-141) (Fc fusion) | 1640 RLU |  |  |
| CD80 IgV-Fc E35D/M47V/I61V/L85M (from UniProt P33681 35-141) (Fc fusion) | 1180 RLU |  |  |
| variant CD80 IgV-Fc (inert) H18Y/A26T/E35D/A71D/L85Q (Fc fusion) |  |  | IL-2-luciferase RLU, Jurkat + CHO/OKT3/PD-L1 aAPC, 0.6 nM [2]: 628 RLU; IL-2-luciferase RLU, Jurkat + CHO/OKT3/PD-L1 aAPC, 1.9 nM [2]: 621 RLU; IL-2-luciferase RLU, Jurkat + CHO/OKT3/PD-L1 aAPC, 5.6 nM [2]: 795 RLU; IL-2-luciferase RLU, Jurkat + CHO/OKT3/PD-L1 aAPC, 16.7 nM [2]: 974 RLU; IL-2-luciferase RLU, Jurkat + CHO/OKT3/PD-L1 aAPC, 50 nM [2]: 1160 RLU; IL-2-luciferase RLU, Jurkat + CHO/OKT3 aAPC (no PD-L1), 16.7 nM [2]: 660 RLU; IL-2-luciferase RLU, Jurkat + CHO/OKT3 aAPC (no PD-L1), 50 nM [2]: 926 RLU |

| Substance | Jurkat/IL2 + CHO/OKT3/PD-L1 reporter assay, RLU at CD80 Conc 5.0 nM [1] | IL-2-luciferase RLU, Jurkat + K562/OKT3/PD-L1 aAPC, 50 nM [2] | also measured |
| --- | --- | --- | --- |
| variant CD80 IgV-Fc (inert) H18Y/Y31H/E35D/M47V/A71G/L85Q (Fc fusion) |  | 455 RLU |  |
| CD80 IgV-Fc (inert) H18C/A26P/E35D/M47L/V68M/A71G (from UniProt P33681 35-141) (Fc fusion) |  |  | RLU, Jurkat/IL2 + CHO/OKT3/PD-L1 Reporter Assay, CD80 Conc 5.0 nM [1]: 936 RLU |
| variant CD80 IgV-Fc (inert) Q33L/E35D/M47I (Fc fusion) |  | 423 RLU | Fold Increase over WT CD80-IgV-Fc, same assay, 50 nM [2]: 0.7 fold |
| variant CD80 IgV-Fc (inert) H18Y/E35D/M47L (Fc fusion) |  | 2980 RLU | Fold Increase over WT CD80-IgV-Fc, same assay, 50 nM [2]: 5.3 fold |
| WT CD80-ECD-Fc (effector) (from UniProt P33681 35-242) (Fc fusion) |  | 3040 RLU |  |
| variant CD80 IgV-Fc (inert) Q33L/E35D/M47L/A71G/F92S (Fc fusion) |  | 394 RLU | Fold Increase over WT CD80-IgV-Fc, same assay, 50 nM [2]: 0.7 fold |
| CD80 IgV-Fc (inert) H18F/A26P/E35D/M47I/V68M/A71G/D90G (from UniProt P33681 35-141) (Fc fusion) |  |  | RLU, Jurkat/IL2 + CHO/OKT3/PD-L1 Reporter Assay, CD80 Conc 5.0 nM [1]: 926 RLU |
| variant CD80 IgV-Fc (inert) Q33R/E35D/D46E/M47I (Fc fusion) |  | 522 RLU | Fold Increase over WT CD80-IgV-Fc, same assay, 50 nM [2]: 0.9 fold |
| CD80 IgV-Fc E35D/T41S/N48T (from UniProt P33681 35-141) (Fc fusion) | 1140 RLU |  |  |
| CD80 IgV-Fc (inert) H18V/A26N/E35D/M47V/V68M/A71G (from UniProt P33681 35-141) (Fc fusion) |  |  | RLU, Jurkat/IL2 + CHO/OKT3/PD-L1 Reporter Assay, CD80 Conc 5.0 nM [1]: 985 RLU |
| variant CD80 IgV-Fc (inert) E35D/M47V/T62A/A71G/V83A/Y87H/L97M (Fc fusion) |  | 438 RLU |  |
| variant CD80 IgV-Fc (inert) E35D/M47L/L85Q (Fc fusion) |  |  | Fold Increase over WT CD80-IgV-Fc, same assay, 50 nM [2]: 5 fold |
| CD80 IgV-Fc (inert) H18Y/E35D/M47V/V68M/A71G (from UniProt P33681 35-141) (Fc fusion) |  |  | RLU, Jurkat/IL2 + CHO/OKT3/PD-L1 Reporter Assay, CD80 Conc 5.0 nM [1]: 963 RLU |
| CD80 IgV-Fc (inert) H18V/A26R/E35D/M47L/V68M/A71G/D90G (from UniProt P33681 35-141) (Fc fusion) |  |  | RLU, Jurkat/IL2 + CHO/OKT3/PD-L1 Reporter Assay, CD80 Conc 5.0 nM [1]: 738 RLU |
| CD80 IgV-Fc (inert) H18A/A26N/E35D/M47L/V68M/A71G/D90G (from UniProt P33681 35-141) (Fc fusion) |  |  | RLU, Jurkat/IL2 + CHO/OKT3/PD-L1 Reporter Assay, CD80 Conc 5.0 nM [1]: 1050 RLU |
| CD80 IgV-Fc Q27H/E35D/M47I (from UniProt P33681 35-141) (Fc fusion) | 1830 RLU |  |  |
| variant CD80 IgV-Fc (inert) Q33R/E35D/K37E/M47V/L85Q (Fc fusion) |  | 464 RLU |  |

Further lines, with some results ahead:

| Jurkat/IL2 + CHO/OKT3/PD-L1 reporter assay, RLU at CD80 Conc 5.0 nM [1] | IL-2-luciferase RLU, Jurkat + K562/OKT3/PD-L1 aAPC, 50 nM [2] | Substance | also measured |
| --- | --- | --- | --- |
| 1760 RLU |  | CD80 IgV-Fc M47I/A71G (from UniProt P33681 35-141) (Fc fusion) |  |
| 1920 RLU |  | CD80 IgV-Fc E35D/D46E/M47I (from UniProt P33681 35-141) (Fc fusion) |  |
| 1170 RLU |  | CD80 IgV-Fc Q27L/E35D/M47V/I61V/L85M (from UniProt P33681 35-141) (Fc fusion) |  |
|  | 390 RLU | variant CD80 IgV-Fc (inert) V22A/E23D/Q33L/E35D/M47V (Fc fusion) | Fold Increase over WT CD80-IgV-Fc, same assay, 50 nM [2]: 0.7 fold |
|  | 500 RLU | variant CD80 IgV-Fc (inert) A26E/Q33R/E35D/M47L/L85Q (Fc fusion) | Fold Increase over WT CD80-IgV-Fc, same assay, 50 nM [2]: 0.9 fold |
| 1950 RLU |  | CD80 IgV-Fc E35D/M47L/A71G (from UniProt P33681 35-141) (Fc fusion) |  |
|  | 476 RLU | variant CD80 IgV-Fc (inert) A26E/Q33L/E35D/M47L (Fc fusion) |  |
|  | 393 RLU | variant CD80 IgV-Fc (inert) Q33L/E35D/M47V (Fc fusion) | Fold Increase over WT CD80-IgV-Fc, same assay, 50 nM [2]: 0.7 fold |
|  | 576 RLU | variant CD80 IgV-Fc (inert) E35D/M47V/A71G/L85M/L97Q (Fc fusion) |  |
|  | 498 RLU | variant CD80 IgV-Fc (inert) A26E/E35D/M43I/M47L/L85Q/K86E/R94W (Fc fusion) | Fold Increase over WT CD80-IgV-Fc, same assay, 50 nM [2]: 0.9 fold |
|  | 4340 RLU | variant CD80 IgV-Fc (inert) H18Y/E35D/V68M/L97Q (Fc fusion) |  |
|  | 538 RLU | variant CD80 IgV-Fc (inert) V22A/E35D/V68E/A71D (Fc fusion) |  |
|  | 1240 RLU | variant CD80 IgV-Fc (inert) E7D/E35D/M47I/L97Q (Fc fusion) | Fold Increase over WT CD80-IgV-Fc, same assay, 50 nM [2]: 2.2 fold |
| 1900 RLU |  | CD80 IgV-Fc H18Y/E35D/M47L/A71G/A91S (from UniProt P33681 35-141) (Fc fusion) |  |
| 1960 RLU |  | CD80 IgV-Fc E35D/D46E (from UniProt P33681 35-141) (Fc fusion) |  |
|  | 481 RLU | variant CD80 IgV-Fc (inert) Q33L/E35D/T41S/M47V (Fc fusion) |  |
|  | 432 RLU | variant CD80 IgV-Fc (inert) Q33L/E35D/M47I/L85Q (Fc fusion) |  |
| 466 RLU |  | CD80 IgV-Fc E35D/M47V/L85M/R94Q (from UniProt P33681 35-141) (Fc fusion) |  |
|  | 533 RLU | variant CD80 IgV-Fc (inert) Q33L/E35D/T41S/M43I (Fc fusion) | Fold Increase over WT CD80-IgV-Fc, same assay, 50 nM [2]: 0.9 fold |
|  | 569 RLU | variant CD80 IgV-Fc (inert) A26E/Q33R/E35D/M47L/L85Q/K86E (Fc fusion) |  |
|  | 2160 RLU | variant CD80 IgV-Fc (inert) E35D/M47L/A71G/L97Q (Fc fusion) | Fold Increase over WT CD80-IgV-Fc, same assay, 50 nM [2]: 3.8 fold |
|  | 556 RLU | variant CD80 IgV-Fc (inert) Q33L/E35D/M47V/L85Q (Fc fusion) |  |
|  | 1090 RLU | variant CD80 IgV-Fc (inert) E35D/D46E/M47V/L97Q (Fc fusion) | Fold Increase over WT CD80-IgV-Fc, same assay, 50 nM [2]: 1.9 fold |
| 1350 RLU |  | CD80 IgV-Fc E35D/M47V (from UniProt P33681 35-141) (Fc fusion) |  |
| 2580 RLU |  | CD80 IgV-Fc V22A/E35D/M47L/A71G (from UniProt P33681 35-141) (Fc fusion) |  |
|  | 602 RLU | variant CD80 IgV-Fc (inert) E35D/M47I/K54R/L85E (Fc fusion) | Fold Increase over WT CD80-IgV-Fc, same assay, 50 nM [2]: 1.1 fold |

Reference: patent publication US20210130436A1
